US20160289305A1 (INTERNATIONAL AIDS VACCINE INITIATIVE, published 2016)

Biological target: T1, YU2 gp120 (HIV-1, UniProt P35961 32-498)
T1 construct: domain: gp120
Assay: ELISA

B1: VRC-PG-05 (antibody, V domains shown)
VH: EVQLVESGGGLVQPGGSLRLSCAASGFPFNRDWMTWVRQAPGKGLEWVANINMDGDKKDYVDSVKGRFTISRDNAKTSLYLQMNSLRAGDTAVYYCARIRQVSKYLQWYPGVFEMWGQGTMVTVSS
VL: DIVMTQSPDSLAVSLGERATIHCKSSQSVLYRPNNRNYVAWYQQKPGQPPRLLIHWASFRESGVPDRFTGSGSGTDFTLTISSLQAEDVAVYYCQQYFFLYSFGGGTKLEIN
binding result: binds
